# Data taken from publication PMC5678105.
# Assays:
# Assay in all cases: EMSA
# [1] = test system: TALE_9a_26 K171A/R173A (Xanthomonas axonopodis scaffold (designed TALE)); settings: 5mC at strand 1 nt 16 (site position 5, T = 0); EMSA: 20 mM Tris pH 8, 50 mM NaCl, 5 mM MgCl2, 5% glycerol; 0.1 pmol TALE + 0.5 pmol duplex in 10 uL; RT 30 min then ice 30 min; gel 0.5x TAE 4 C; GFP readout
# [2] = test system: TALE_9a_26 (3) (Xanthomonas axonopodis scaffold (designed TALE)); settings: 5mC at strand 1 nt 16 (site position 5, T = 0); EMSA: 20 mM Tris pH 8, 50 mM NaCl, 5 mM MgCl2, 5% glycerol; 0.1 pmol TALE + 0.5 pmol duplex in 10 uL; RT 30 min then ice 30 min; gel 0.5x TAE 4 C; GFP readout
# [3] = test system: TALE_9a_26 R266A (Xanthomonas axonopodis scaffold (designed TALE)); settings: 5mC at strand 1 nt 16 (site position 5, T = 0); EMSA: 20 mM Tris pH 8, 50 mM NaCl, 5 mM MgCl2, 5% glycerol; 0.1 pmol TALE + 0.5 pmol duplex in 10 uL; RT 30 min then ice 30 min; gel 0.5x TAE 4 C; GFP readout
# [4] = test system: TALE_9a_26 R236A (Xanthomonas axonopodis scaffold (designed TALE)); settings: 5mC at strand 1 nt 16 (site position 5, T = 0); EMSA: 20 mM Tris pH 8, 50 mM NaCl, 5 mM MgCl2, 5% glycerol; 0.1 pmol TALE + 0.5 pmol duplex in 10 uL; RT 30 min then ice 30 min; gel 0.5x TAE 4 C; GFP readout
# [5] = test system: TALE_9a_26 K262A (Xanthomonas axonopodis scaffold (designed TALE)); settings: 5mC at strand 1 nt 16 (site position 5, T = 0); EMSA: 20 mM Tris pH 8, 50 mM NaCl, 5 mM MgCl2, 5% glycerol; 0.1 pmol TALE + 0.5 pmol duplex in 10 uL; RT 30 min then ice 30 min; gel 0.5x TAE 4 C; GFP readout
# [6] = test system: TALE_9a_26 (5*) (Xanthomonas axonopodis scaffold (designed TALE)); settings: 5mC at strand 1 nt 16 (site position 5, T = 0); EMSA: 20 mM Tris pH 8, 50 mM NaCl, 5 mM MgCl2, 5% glycerol; 0.1 pmol TALE + 0.5 pmol duplex in 10 uL; RT 30 min then ice 30 min; gel 0.5x TAE 4 C; GFP readout
# [7] = test system: TALE_2c_26 (3) (Xanthomonas axonopodis scaffold (designed TALE)); settings: 5mC at strand 1 nt 24 (site position 13, T = 0); EMSA: 20 mM Tris pH 8, 50 mM NaCl, 5 mM MgCl2, 5% glycerol; 0.1 pmol TALE + 0.5 pmol duplex in 10 uL; RT 30 min then ice 30 min; gel 0.5x TAE 4 C; GFP readout
# [8] = test system: TALE_2c_26 (23) (Xanthomonas axonopodis scaffold (designed TALE)); settings: 5mC at strand 1 nt 24 (site position 13, T = 0); EMSA: 20 mM Tris pH 8, 50 mM NaCl, 5 mM MgCl2, 5% glycerol; 0.1 pmol TALE + 0.5 pmol duplex in 10 uL; RT 30 min then ice 30 min; gel 0.5x TAE 4 C; GFP readout
Sequence,binding signal (fold C/5mC selectivity vs WT TALE) [1],binding signal (fold C/5mC selectivity vs WT TALE) [2],binding signal (fold C/5mC selectivity vs WT TALE) [3],binding signal (fold C/5mC selectivity vs WT TALE) [4],binding signal (fold C/5mC selectivity vs WT TALE) [5],binding signal (fold C/5mC selectivity vs WT TALE) [6],binding signal (fold C/5mC selectivity vs WT TALE) [7],binding signal (fold C/5mC selectivity vs WT TALE) [8]
GGCCAGCCAGTCAGCCGAAGGCTCCATGCTGCTCCCCGCCGCCGGC (double strand) [9a_26 5mC],2.9,5.7,3,1.4,3,7.2,,
CATCCATGAGTGAGAAACCCTGGCGGGGTGTGACATCCTCCCCCGG (double strand) [2c_26 5mC],,,,,,,2.5,1.1
